# Experimental data reported in patent US20230295310A1 (ABCELLERA BIOLOGICS, published 2023).
# Biological target: T1, cynomolgus monkey CD3 (cynomolgus monkey, UniProt Q95LI5 22-198; Q95LI8 22-171; Q95LI7 23-181)
# T1 construct: whole, on cells; CD3 on purified cynomolgus monkey CD3 pan T cells; also called cyno CD3; CD3 on cyno primary T cells
# Experiment: flow cytometry, cyno primary T cells
# Outline: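 Antibodies at 25 nM in PBS + 2% FBS were incubated with CD3-expressing cells for 30 minutes at 4° C and analysed by flow cytometry. Median fluorescence intensity was normalized to isotype control to give fold over isotype (FOI); FOI ≥10 counted as binding.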
# T1 sequence (Q95LI5 22-198, chain 1 of 3): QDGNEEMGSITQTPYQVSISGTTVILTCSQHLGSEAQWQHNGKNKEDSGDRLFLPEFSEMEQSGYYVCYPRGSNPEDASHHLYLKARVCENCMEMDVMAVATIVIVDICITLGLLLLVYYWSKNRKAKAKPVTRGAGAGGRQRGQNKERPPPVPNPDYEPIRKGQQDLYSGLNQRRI
# T1 sequence (Q95LI8 22-171, chain 2 of 3): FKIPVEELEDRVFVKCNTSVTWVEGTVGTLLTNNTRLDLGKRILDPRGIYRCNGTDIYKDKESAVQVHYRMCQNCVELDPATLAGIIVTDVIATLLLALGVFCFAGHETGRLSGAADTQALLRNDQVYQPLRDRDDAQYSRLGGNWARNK
# T1 sequence (Q95LI7 23-181, chain 3 of 3): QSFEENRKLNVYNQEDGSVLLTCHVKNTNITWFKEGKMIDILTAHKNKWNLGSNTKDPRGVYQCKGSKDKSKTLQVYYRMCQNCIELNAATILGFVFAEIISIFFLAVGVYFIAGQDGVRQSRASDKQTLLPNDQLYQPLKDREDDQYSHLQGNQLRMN
row,Binder,binding result
1,"mAb 314 (antibody, V domains shown, VH and VL only) VH: EVQLLESGGGLVQPGGSLRLSCAASGFTFSSYAMSWVRQAPGKGLEWVSVISGSGGNKNYADSVKGRFTISRDNSKNTLYLQMNSLRAEDTAVYYCAKKFSYYYYYMDVWGKGTTVTVSS VL: SYELTQPLSVSVALGQTARITCGGNNIGSKDVHWYQQKPGQAPVLVIYRDSNRPSGIPERFSGSNSGNTATLTISRAQAGDEADYYCQVWDSRTAVFGGGTQLTAL",no binding (tested: FOI ≥10 = positive; 25 nM)
2,"mAb 295 (antibody, V domains shown, VH and VL only) VH: EVQLLESGGGLVQPGGSLRLSCAASGITFSSYAMSWVRQAPGKGLEWVSTISGNGGTLYYTDSVKGRFTISRDNSKNTLYLQMNSLRAEDTAVYYCAKKYSYYYYYMDVWGKGTTVTVSS VL: SYELTQPLSVSVALGQTARITCGGNNIGSKNVHWYQQKPGQAPVLVIYRDSNRPSGIPERFSGSNSGNTATLTISRAQAGDEADYYCQVWDSSTAVFGGGTQLTAL",no binding (tested: FOI ≥10 = positive; 25 nM)
3,"mAb 291 (antibody, V domains shown, VH and VL only) VH: EVQLLESGGGLVQPGGSRRLSCAASGFTFSSYALSWVRQAPGKGLEWVSVINTRGDSTSYADSVKGRFTISRDNSKNTLYLQMNSLRAEDTAVYYCAKKYSYYYYYMDVWGKGTTVTVSS VL: SYELTQPLSVSVALGQTARITCGGNNIGSKDVHWYQQKPGQAPVLVIYRDSNRPSGIPERFSGSNSGNTATLTISRAQAGDEADYYCQVWDSRTAVFGGGTQLTAL",no binding (tested: FOI ≥10 = positive; 25 nM)

# Biological target: EGFR on HeLa cells (UniProt P00533 25-1210, limits assumed)
# Experiment: cell-based or functional assay
X… HeLa EC50 [nM],Binder,Max killing % [%]
,"GOMP001_bsAb_050 (bispecific antibody, human IgG1, kappa, L234A L235A) heavy 1: QVQLVESGGGVVQPGRSLRLSCAASGFTFSTYGMHWVRKAPGKGLEWVAVIWYDGSHKYYADEVKGRFTISRDNSKKTLYLQMNSLRAEDTGIYYCARTGISGNMSYFYFDHWGQGILVTVSSASTKGPSVFPLAPSSKSTSGGTAALGCLVADYFPEPVTVSWNSGALTSGVHTFPAVLQSSGLYSLSSVVTVPSSSLGTQTYICNVNHKPSNTKVDEKVEPKSCDKTHTCPPCPAPEAAGGPSVFLFPPKPKDTLMISRTPEVTCVVVDVSHEDPEVKFNWYVDGVEVHNAKTKPREEQYNSTYRVVSVLTVLHQDWLNGKEYKCKVSNKALPAPIEKTISKAKGQPREPQVYTLPPSREEMTDNQVSLTCLVKGFYPSDIAVEWESNGQPENNYKTTPPVLMSDGSFFLASKLTVDKSRWQQGNVFSCSVMHEALHNHYTQKSLSLSPG light 1: not shown heavy 2: QVQLVQSGAEVKKPGASVKVSCKASGYTFTSHWMHWVRYAPGQGLEWIGEFNPSNGRTNYNEKFKSKATMTVDTSTNTAYMELSSLRSEDTAVYYCASRDYDYDGRYFDYWGRGTLVTVSSASTKGPSVFPLAPSSKSTSGGTAALGCLVKDYFPEPVTVSWNSGALTSGVHTFPAVLQSSGLYSLSSVVTVPSSSLGTQTYICNVNHKPSNTKVDKKVEPKSCDKTHTCPPCPAPEAAGGPSVFLFPPKPKDTLMISRTPEVTCVVVDVSHEDPEVKFNWYVDGVEVHNAKTKPREEQYNSTYRVVSVLTVLHQDWLNGKEYKCKVSNKALPAPIEKTISKAKGQPRRPRVYTLPPSREEMTKNQVSLVCLVKGFYPSDIAVEWESNGQPENNYKTTPPVLDSDGSFFLYSVLTVDKSRWQQGNVFSCSVMHEALHNHYTQKSLSLSPG light 2: DIQMTQSPSSLSASVGDRVTITCSASSSVTYMYWYQRKPGDAPKLLIYDTSNLASGVPSRFSGSGSGTDYTFTISSLQPEDIATYYCQQWSSHIFTFGQGTKVEIKRTVAAPSVFIFPPSDEQLKSGTASVVCLLNNFYPREAKVQWKVDNALQSGNSQESVTEQDSKDSTYSLSSTLTLSKADYEKHKVYACEVTHQGLSSPVTKSFNRGEC",57
0.182,"GOMP001_bsAb_055 (bispecific antibody, human IgG1, kappa, L234A L235A) heavy 1: QVQLVQSGAEVKKPGASVKVSCKASGYTFTSHWMHWVRKAPGQGLEWIGEFNPSNGRTNYNEEFKSKATMTVDTSTNTAYMELSSLRSEDTAVYYCASRDYDYDGRYFDYWGQGTLVTVSSASTKGPSVFPLAPSSKSTSGGTAALGCLVADYFPEPVTVSWNSGALTSGVHTFPAVLQSSGLYSLSSVVTVPSSSLGTQTYICNVNHKPSNTKVDEKVEPKSCDKTHTCPPCPAPEAAGGPSVFLFPPKPKDTLMISRTPEVTCVVVDVSHEDPEVKFNWYVDGVEVHNAKTKPREEQYNSTYRVVSVLTVLHQDWLNGKEYKCKVSNKALPAPIEKTISKAKGQPREPQVYTLPPSREEMTDNQVSLTCLVKGFYPSDIAVEWESNGQPENNYKTTPPVLMSDGSFFLASKLTVDKSRWQQGNVFSCSVMHEALHNHYTQKSLSLSPG light 1: RIQMTQSPSSLSASVGDRVTITCSASSSVTYMYWYQDKPGKAPKLLIYDTSNLASGVPSRFSGSGSGTDYTFTISSLQPEDIATYYCQQWSSHIFTFGQGTKVEIKRTVAAPSVFIFPPSDKQLKSGTARVVCLLNNFYPREAKVQWKVDNALQSGNSQESVTEQDSKDSTYSLSSTLTLSKADYEKHKVYACEVTHQGLSSPVTKSFNRGEC heavy 2: EVNLVESGGGLVQPGRSLRLSCAASGFTFDDYTMHWVRYVPGKGLEWVSNISWNSGSLGYADRVKGRFTISRDNAKDSLYLQMNSLRVEDTALYYCAKDSSGYGHYNSYYMDVWGRGTTVTVSSASTKGPSVFPLAPSSKSTSGGTAALGCLVKDYFPEPVTVSWNSGALTSGVHTFPAVLQSSGLYSLSSVVTVPSSSLGTQTYICNVNHKPSNTKVDKKVEPKSCDKTHTCPPCPAPEAAGGPSVFLFPPKPKDTLMISRTPEVTCVVVDVSHEDPEVKFNWYVDGVEVHNAKTKPREEQYNSTYRVVSVLTVLHQDWLNGKEYKCKVSNKALPAPIEKTISKAKGQPRRPRVYTLPPSREEMTKNQVSLVCLVKGFYPSDIAVEWESNGQPENNYKTTPPVLDSDGSFFLYSVLTVDKSRWQQGNVFSCSVMHEALHNHYTQKSLSLSPG light 2: DIQMTQSPSSLSASVGDRVTITCRASQSIRNYLNWYQRKPGDAPKVLIYSASSLQSGVPSRFSGSGSGTDFTLTISSLQPEDFASFYCQQTYSTPITFGQGTRLEIKRTVAAPSVFIFPPSDEQLKSGTASVVCLLNNFYPREAKVQWKVDNALQSGNSQESVTEQDSKDSTYSLSSTLTLSKADYEKHKVYACEVTHQGLSSPVTKSFNRGEC",78
,"GOMP001_bsAb_051 (bispecific antibody, human IgG1, kappa, L234A L235A) heavy 1: QVQLVQSGAEVKKPGASVKVSCKASGYTFTSHWMHWVRKAPGQGLEWIGEFNPSNGRTNYNEEFKSKATMTVDTSTNTAYMELSSLRSEDTAVYYCASRDYDYDGRYFDYWGQGTLVTVSSASTKGPSVFPLAPSSKSTSGGTAALGCLVADYFPEPVTVSWNSGALTSGVHTFPAVLQSSGLYSLSSVVTVPSSSLGTQTYICNVNHKPSNTKVDEKVEPKSCDKTHTCPPCPAPEAAGGPSVFLFPPKPKDTLMISRTPEVTCVVVDVSHEDPEVKFNWYVDGVEVHNAKTKPREEQYNSTYRVVSVLTVLHQDWLNGKEYKCKVSNKALPAPIEKTISKAKGQPREPQVYTLPPSREEMTDNQVSLTCLVKGFYPSDIAVEWESNGQPENNYKTTPPVLMSDGSFFLASKLTVDKSRWQQGNVFSCSVMHEALHNHYTQKSLSLSPG light 1: RIQMTQSPSSLSASVGDRVTITCSASSSVTYMYWYQDKPGKAPKLLIYDTSNLASGVPSRFSGSGSGTDYTFTISSLQPEDIATYYCQQWSSHIFTFGQGTKVEIKRTVAAPSVFIFPPSDKQLKSGTARVVCLLNNFYPREAKVQWKVDNALQSGNSQESVTEQDSKDSTYSLSSTLTLSKADYEKHKVYACEVTHQGLSSPVTKSFNRGEC heavy 2: QVQLVQSGAEVKKPGASVKVSCKASGYTFTSYYIHWVRYAPGQGLDWMGIINPSGGITGYAQKLQGRVTMTRDTSTTTVYMELSSLRSDDTAVYYCARGVRGNYYYYYMDVWGRGTTVTVSSASTKGPSVFPLAPSSKSTSGGTAALGCLVKDYFPEPVTVSWNSGALTSGVHTFPAVLQSSGLYSLSSVVTVPSSSLGTQTYICNVNHKPSNTKVDKKVEPKSCDKTHTCPPCPAPEAAGGPSVFLFPPKPKDTLMISRTPEVTCVVVDVSHEDPEVKFNWYVDGVEVHNAKTKPREEQYNSTYRVVSVLTVLHQDWLNGKEYKCKVSNKALPAPIEKTISKAKGQPRRPRVYTLPPSREEMTKNQVSLVCLVKGFYPSDIAVEWESNGQPENNYKTTPPVLDSDGSFFLYSVLTVDKSRWQQGNVFSCSVMHEALHNHYTQKSLSLSPG light 2: EIVLTQSPDFQSVTPKEKVTITCRASQSIGSKLHWYQRKPDDSPKLLIKYASQSFSGVPSRFSGSGSGTDFNLTINSLEAEDAATFYCHQSSGLPYTFGQGTKLEIKRTVAAPSVFIFPPSDEQLKSGTASVVCLLNNFYPREAKVQWKVDNALQSGNSQESVTEQDSKDSTYSLSSTLTLSKADYEKHKVYACEVTHQGLSSPVTKSFNRGEC",60.2
0.0135,GOMP001_bsAb_056 (bispecific antibody) heavy 1: EVNLVESGGGLVQPGRSLRLSCAASGFTFDDYTMHWVRKVPGKGLEWVSNISWNSGSLGYADEVKGRFTISRDNAKDSLYLQMNSLRVEDTALYYCAKDSSGYGHYNSYYMDVWGKGTTVTVSSASTKGPSVFPLAPSSKSTSGGTAALGCLVADYFPEPVTVSWNSGALTSGVHTFPAVLQSSGLYSLSSVVTVPSSSLGTQTYICNVNHKPSNTKVDEKVEPKSCDKTHTCPPCPAPEAAGGPSVFLFPPKPKDTLMISRTPEVTCVVVDVSHEDPEVKFNWYVDGVEVHNAKTKPREEQYNSTYRVVSVLTVLHQDWLNGKEYKCKVSNKALPAPIEKTISKAKGQPREPQVYTLPPSREEMTDNQVSLTCLVKGFYPSDIAVEWESNGQPENNYKTTPPVLMSDGSFFLASKLTVDKSRWQQGNVFSCSVMHEALHNHYTQKSLSLSPG light 1: RIQMTQSPSSLSASVGDRVTITCRASQSIRNYLNWYQDKPGKAPKVLIYSASSLQSGVPSRFSGSGSGTDFTLTISSLQPEDFASFYCQQTYSTPITFGQGTRLEIKRTVAAPSVFIFPPSDKQLKSGTARVVCLLNNFYPREAKVQWKVDNALQSGNSQESVTEQDSKDSTYSLSSTLTLSKADYEKHKVYACEVTHQGLSSPVTKSFNRGEC heavy 2: QVQLVQSGAEVKKPGASVKVSCKASGYTFTSHWMHWVRYAPGQGLEWIGEFNPSNGRTNYNEKFKSKATMTVDTSTNTAYMELSSLRSEDTAVYYCASRDYDYDGRYFDYWGRGTLVTVSSASTKGPSVFPLAPSSKSTSGGTAALGCLVKDYFPEPVTVSWNSGALTSGVHTFPAVLQSSGLYSLSSVVTVPSSSLGTQTYICNVNHKPSNTKVDKKVEPKSCDKTHTCPPCPAPEAAGGPSVFLFPPKPKDTLMISRTPEVTCVVVDVSHEDPEVKFNWYVDGVEVHNAKTKPREEQYNSTYRVVSVLTVLHQDWLNGKEYKCKVSNKALPAPIEKTISKAKGQPRRPRVYTLPPSREEMTKNQVSLVCLVKGFYPSDIAVEWESNGQPENNYKTTPPVLDSDGSFFLYSVLTVDKSRWQQGNVFSCSVMHEALHNHYTQKSLSLSPG light 2: DIQMTQSPSSLSASVGDRVTITCSASSSVTYMYWYQRKPGDAPKLLIYDTSNLASGVPSRFSGSGSGTDYTFTISSLQPEDIATYYCQQWSSHIFTFGQGTKVEIKRTVAAPSVFIFPPSDEQLKSGTASVVCLLNNFYPREAKVQWKVDNALQSGNSQESVTEQDSKDSTYSLSSTLTLSKADYEKHKVYACEVTHQGLSSPVTKSFNRGEC,96.3
